# Reference: patent publication US12186374B2 (Sanofi-Aventis Deutschland GmbH, priority 2014, dated 2025)
# Key:
# [1] = system: patients with Type 2 diabetes mellitus (T2DM); assay: Patients with HbA1c ≤6.5% or <7% at Week 30 (Example 2); assay type: in vivo, human; details: mITT population
# Description: Efficacy analysis was based on modified intent-to-treat (mITT) population using efficacy assessments collected during the study, including those obtained after IMP discontinuation or introduction of rescue therapy. The mITT population consisted of all randomized patients who had both a baseline assessment and at least one post-baseline assessment of any primary or secondary efficacy variables.
# (§1) Similar MMRM method or ANCOVA was applied on continuous secondary efficacy endpoints and Cochran-Mantei-Haenszel method stratified by randomization strata was applied on categorical efficacy endpoints.
# [2] = system: patients with T2DM; assay: Average 7-point SMPG change from baseline to Week 30 (Example 3); assay type: in vivo, human; details: mITT population
# Description: In yet another aspect of the present invention, the composition or combination as described herein can be used for improving average 7-point SMPG profile. Self-monitored plasma glucose (SMPG)”, as used herein, is in particular the “7-point Self Monitored Plasma Glucose”. “7-point Self Monitored Plasma Glucose” in particular refers to the measurement of plasma glucose seven times a day and calculation of the average plasma glucose concentration therefrom. The “7-point Self Monitored Plasma Glucose” value is in particular an average plasma glucose concentration including fasting and postprandial conditions. In particular, measurements of plasma glucose concentration are performed pre-breakfast, post-breakfast (e.g. 2-hour post-breakfast), pre-lunch, post-lunch (e.g. 2-hour post-lunch), pre-dinner, post-dinner (e.g. 2-hour post-dinner) and at bed-time. The treatment by the combination of the present invention, as described herein, can improve the self-monitored plasma glucose.
# The 7-point SMPG profile should be measured at the following 7 points: pre-prandial and 2 hours postprandial for breakfast, lunch, dinner and at bedtime. Two hours postprandial (breakfast, lunch and dinner) is defined as 2 hours after the start of the meal.
# The patients are requested to perform 7-point SMPG profile measurement over a single 24-hour period on 2 Different Days in the Week Before V6 (Week 0), V15 (Week 12), and V21 (week 30, end of treatment assessment visit). All SMPG values measured on these days will be recorded in diary and transferred into the e-CRF.
# (§2) Similar MMRM method or analysis of covariance (ANCOVA) was applied on continuous secondary efficacy endpoints and the Cochran-Mantei-Haenszel method stratified by randomization strata was applied for categorical efficacy endpoints.
# [3] = system: patients with Type 2 diabetes mellitus (T2DM); assay: Major cardiovascular events adjudicated by CAC (Example 2); details: on-treatment period
# [4] = system: patients with Type 2 diabetes mellitus (T2DM); assay: Increased calcitonin reported on AE form (Example 2); design: Patients with TEAE of increased calcitonin: dose or concentration left out as unconfirmed
# [5] = system: patients with T2DM; assay: Standardized meal test: 2-hour glucose excursion and 2-hour PPG (Example 3); assay type: in vivo, human
# Method: (§3) Patients will undergo a standardized meal challenge to assess fasting and postprandial glucose (central laboratory), as well as plasma glucose excursion.
# (§4) The standardized meal contains approximately 600 kcal and is composed of 50 to 55% carbohydrate, 15 to 20% protein and 25 to 30% fat.
# (§5) On the day of the standardized meal test, the patients will come to the investigational site in the morning, in fasting conditions for at least 8 hours and must not eat any food or drink, except water, before the scheduled standardized meal test. […] Patient in insulin glargine group will inject their insulin glargine at their usual injection time.
# (§6) The standardized meal for all patients should be consumed within a 15-minute period. Blood for plasma glucose is drawn 5 times: • 30 minutes prior to the start of the meal and before IMP administration if the IMP is injected before breakfast; • Just before the start of the standardized meal (0 minute), • 30 minutes after the start of the standardized meal, • 60 minutes after the start of the standardized meal, • 120 minutes after the start of the standardized meal.
# as §2
# [6] = system: patients with T2DM; assay: Pen-related event questionnaire (Example 3); details: on-treatment period
# [7] = system: patients with Type 2 diabetes mellitus (T2DM); assay: Standardized meal test: 2-hour glucose excursion and 2-hour PPG (Example 2); assay type: in vivo, human
# Method: as §3, §4, §5, §6, §1
# [8] = system: patients with T2DM; assay type: in vivo, human; details: Example 3
# Description: as §2
# [9] = system: patients with T2DM; assay: Symptomatic hypoglycemia (Example 3)
# [10] = on-treatment period, Safety population
# [11] = standardized meal test, ANCOVA, mITT population
# [12] = standardized meal test, mITT population
# [13] = Example 2, baseline, standardized meal test
# [14] = plasma glucose <60 mg/dL [[…]], on-treatment period, Safety population
# [15] = plasma glucose ≤70 mg/dL [[…]], on-treatment period, Safety population
substance,measurement,setting,value
Gly(A21)-Arg(B31)-Arg(B32)-human insulin [Insulin Glargine],% of patients with HbA1c ≤[…] at Week 30,[1],(39.5%)
same,Number of patients with HbA1c ≤[…] at Week 30,[1],184 patients
same,% of patients with HbA1c ≤[…] at Week 30,[1]; listed as insulin glargine,39.5%
same,"Average of 7-point SMPG, change from baseline to Week 30, LS Mean (SE)",[2]; MMRM,−0.60 (0.130) mmol/L
same,"Average of 7-point SMPG at Week 30, Mean (SD)",[2],8.62 (1.74) mmol/L
same,"Average of 7-point SMPG at Week 30, Median",[2],8.26 mmol/L
same,"TEAEs adjudicated as major cardiovascular events by CAC, % of patients",[3]; Example 2,1.5%
same,"TEAEs adjudicated as major cardiovascular events by CAC, number of patients",[3]; Example 2,7 patients
same,Major cardiovascular events by CAC: Cardiovascular death,[3]; Safety population,2 (0.4%) n(%)
same,Major cardiovascular events by CAC: Coronary revascularization procedure,[3]; Safety population,1 (0.2%) n(%)
same,Major cardiovascular events by CAC: Hospitalization for heart failure,[3]; Safety population,2 (0.4%) n(%)
same,Major cardiovascular events by CAC: Hospitalization for unstable angina,[3]; Safety population,1 (0.2%) n(%)
same,Major cardiovascular events by CAC: Non-fatal myocardial infarction,[3]; Safety population,0 n(%)
same,Major cardiovascular events by CAC: Non-fatal stroke,[3]; Safety population,1 (0.2%) n(%)
same,Patients with events adjudicated as major cardiovascular events by CAC: Any,[3]; Safety population,7 (1.5%) n(%)
same,Patients with TEAE of increased calcitonin,[4]; Example 2,One
same,Events reported on the AE form for increased calcitonin (≥20 ng/L): Blood calcitonin increased,[4]; [10],1 (0.2%) n (%)
same,Patients with events reported on the AE form for increased calcitonin (≥20 ng/L): Any,[4]; [10],1 (0.2%) n (%)
same,"2-hour PPG, LS mean change",[5]; Example 3,-1.39 mmol/L
same,"2-hour glucose excursion, LS mean change from baseline to Week 30","[5]; Example 3, standardized liquid breakfast meal",-0.47 mmol/L
same,"2-hour plasma glucose excursion, change from baseline to Week 30 (LOCF), LS Mean (SE)",[5]; [11],−0.47 (0.274) mmol/L
same,"2-hour postprandial plasma glucose change from baseline to Week 30 (LOCF), LS Mean (SE)",[5]; [11],−1.39 (0.310) mmol/L
same,"2-hour plasma glucose excursion at Week 30 (LOCF), Mean (SD)",[5]; [12],6.71 (3.34) mmol/L
same,"2-hour plasma glucose excursion at Week 30 (LOCF), Median",[5]; [12],6.40 mmol/L
same,"2-hour plasma glucose excursion, change from baseline to Week 30 (LOCF), Mean (SD)",[5]; [12],−0.44 (3.34) mmol/L
same,"2-hour plasma glucose excursion, change from baseline to Week 30 (LOCF), Median",[5]; [12],-0.30 mmol/L
same,"2-hour postprandial plasma glucose at Week 30 (LOCF), Mean (SD)",[5]; [12],13.41 (3.83) mmol/L
same,"2-hour postprandial plasma glucose at Week 30 (LOCF), Median",[5]; [12],13.10 mmol/L
same,"2-hour postprandial plasma glucose change from baseline to Week 30 (LOCF), Mean (SD)",[5]; [12],−1.56 (4.20) mmol/L
same,"2-hour postprandial plasma glucose change from baseline to Week 30 (LOCF), Median",[5]; [12],-1.50 mmol/L
same,"Patients reporting pen-related events, %",[6]; Example 3,4.1%
same,"Patients reporting pen-related events, number",[6]; Example 3,15 patients
same,% of patients with events reported in pen-related event questionnaire: Any pen-related events,[6]; Safety population,4.1%
same,% of patients with events reported in pen-related event questionnaire: Not associated with a clinical event,[6]; Safety population,4.1%
same,Number of patients with events reported in pen-related event questionnaire: Any pen-related events,[6]; Safety population,15
same,Number of patients with events reported in pen-related event questionnaire: Associated with a clinical event,[6]; Safety population,0
same,Number of patients with events reported in pen-related event questionnaire: Not associated with a clinical event,[6]; Safety population,15
same,"2-hour plasma glucose excursion, change from baseline to Week 30 (LOCF), LS Mean (SE)","[7]; ANCOVA, mITT population",−0.18 (0.157) mmol/L
same,2-hour PPG change from baseline to Week 30 (LOCF) Mean (SD),[7]; Example 2,−3.26 (3.54) mmol/L
same,2-hour PPG change from baseline to Week 30 (LOCF) Median,[7]; Example 2,-3.35 mmol/L
same,2-hour PPG change from baseline to Week 30 (LOCF) LS Mean (SE),"[7]; Example 2, ANCOVA",−3.31 (0.178) mmol/L
same,2-hour PPG change from baseline to Week 30 (LOCF) LS Mean (SE),"[7]; Example 2, ANCOVA, listed as insulin glargine",-3.31 mmol/L
same,2-hour postprandial plasma glucose Week 30 (LOCF) Mean (SD),"[7]; Example 2, Week 30 (LOCF)",11.35 (3.12) mmol/L
same,2-hour postprandial plasma glucose Week 30 (LOCF) Median,"[7]; Example 2, Week 30 (LOCF)",11.20 mmol/L
same,"2-hour glucose excursion, LS mean change","[7]; Example 2, baseline to Week 30, standardized liquid breakfast meal",-0.18 mmol/L
same,2-hour postprandial plasma glucose Baseline Mean (SD),[7]; [13],14.61 (3.64) mmol/L
same,2-hour postprandial plasma glucose Baseline Median,[7]; [13],14.50 mmol/L
same,"2-hour plasma glucose excursion, Week 30 (LOCF), Mean (SD)",[7]; [12],4.80 (2.90) mmol/L
same,"2-hour plasma glucose excursion, Week 30 (LOCF), Median",[7]; [12],4.70 mmol/L
same,"2-hour plasma glucose excursion, change from baseline to Week 30 (LOCF), Mean (SD)",[7]; [12],−0.22 (2.86) mmol/L
same,"2-hour plasma glucose excursion, change from baseline to Week 30 (LOCF), Median",[7]; [12],-0.10 mmol/L
same,Patients reaching HbA1c<7.0% with no body weight gain and no documented symptomatic hypoglycemia,[8],9.0%
same,Patients reaching HbA1c<7.0% at Week 30 with no documented symptomatic hypoglycemia,[8]; 30-week treatment period,18.6%
same,Documented symptomatic hypoglycemia event rate per patient-year,[9]; Example 3,4.22 per patient-year
same,Patients with at least one event of documented (PG ≤70 mg/dL) symptomatic hypoglycemia,[9]; Example 3,42.5%
same,"Severe symptomatic hypoglycemia, % of patients",[9]; Example 3,0.3%
same,"Severe symptomatic hypoglycemia, number of events",[9]; Example 3,1 events
same,"Severe symptomatic hypoglycemia, number of patients",[9]; Example 3,1 patients
same,Probable symptomatic hypoglycaemia: Number of events,[9]; [10],29
same,Probable symptomatic hypoglycaemia: Number of events per patient year,[9]; [10],0.14
same,Probable symptomatic hypoglycaemia: Number of patients with events per patient year,[9]; [10],0.10
same,"Probable symptomatic hypoglycaemia: patients with events, %",[9]; [10],(5.5%)
same,Severe symptomatic hypoglycaemia: Number of events,[9]; [10],1
same,Severe symptomatic hypoglycaemia: Number of events per patient year,[9]; [10],<0.01
same,Severe symptomatic hypoglycaemia: Number of patients with events per patient year,[9]; [10],<0.01
same,"Severe symptomatic hypoglycaemia: patients with events, %",[9]; [10],(0.3%)
same,Symptomatic hypoglycemia: Number of events,[9]; [10],910
same,Symptomatic hypoglycemia: Number of events per patient year,[9]; [10],4.36
same,Symptomatic hypoglycemia: Number of patients with events per patient year,[9]; [10],0.77
same,"Symptomatic hypoglycemia: patients with events, %",[9]; [10],(44.1%)
same,Documented symptomatic hypoglycaemia: Number of events,[9]; [14],235
same,Documented symptomatic hypoglycaemia: Number of events per patient year,[9]; [14],1.13
same,Documented symptomatic hypoglycaemia: Number of patients with events per patient year,[9]; [14],0.40
same,"Documented symptomatic hypoglycaemia: patients with events, %",[9]; [14],(22.7%)
same,Documented symptomatic hypoglycaemia: Number of events,[9]; [15],880
same,Documented symptomatic hypoglycaemia: Number of events per patient year,[9]; [15],4.22
same,Documented symptomatic hypoglycaemia: Number of patients with events per patient year,[9]; [15],0.74
same,"Documented symptomatic hypoglycaemia: patients with events, %",[9]; [15],(42.5%)
